Molecular target: Bio-His-FIKK13 (P. falciparum)
Test: SPR

- Kd: 17 nM
Binder: YPLRFLSKYHCG [FIKK13_4]

Reference: paper doi:10.1101/2024.02.22.581535
